Laboratory results from patent US20260027209A1.

Molecular target: human Claudin-6 (human) (UniProt P56747)
Assay: flow cytometry on Dubca.huCLDN6.Luc cells against Dubca cells

UniProt P56747, sequence (P56747 whole entry): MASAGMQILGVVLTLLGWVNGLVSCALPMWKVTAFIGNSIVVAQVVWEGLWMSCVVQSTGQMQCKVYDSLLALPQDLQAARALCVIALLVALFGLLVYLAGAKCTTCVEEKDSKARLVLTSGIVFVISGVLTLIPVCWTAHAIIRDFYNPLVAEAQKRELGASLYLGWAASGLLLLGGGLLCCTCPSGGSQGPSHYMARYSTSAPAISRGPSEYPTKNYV

For “human CLDN6 AlexaFluor 700-conjugated antibody (R&D, Cat. No. FAB3656N)”, the MFI fold over untransduced Dubca cells was 203 fold.
